From US20070071746A1 (AstraZeneca / MedImmune, published 2007)

T1: human YKL-39 (human, UniProt Q15782 27-390)
T1 construct: Recombinant from HEK293; non-tagged versions also made; also called hYKL-39; chondrocyte protein 39
T1 sequence: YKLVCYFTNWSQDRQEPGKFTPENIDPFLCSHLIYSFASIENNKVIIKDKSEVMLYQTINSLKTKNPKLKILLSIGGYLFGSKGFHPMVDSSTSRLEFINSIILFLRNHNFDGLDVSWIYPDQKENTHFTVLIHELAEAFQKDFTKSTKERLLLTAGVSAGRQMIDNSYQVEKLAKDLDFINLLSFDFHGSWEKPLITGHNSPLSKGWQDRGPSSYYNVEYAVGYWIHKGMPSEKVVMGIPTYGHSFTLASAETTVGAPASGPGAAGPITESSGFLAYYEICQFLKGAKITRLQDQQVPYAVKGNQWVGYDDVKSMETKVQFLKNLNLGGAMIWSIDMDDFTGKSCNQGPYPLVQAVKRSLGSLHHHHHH


What was measured:
[1] = target: T2, mouse acidic mammalian chitinase (AMCase), full length (mouse, UniProt Q91XA9 22-473); test: ELISA; + = 0.20 to 0.99 OD at 62.5 ng/ml
T2 construct: Recombinant, secreted from HEK293 cells and purified by its His tag; Biotin labeled in the galectin ELISA; also called mAMCase; mouse AMCase
T2 sequence (Q91XA9 other isoform, or with tags, fused parts or gaps limits assumed): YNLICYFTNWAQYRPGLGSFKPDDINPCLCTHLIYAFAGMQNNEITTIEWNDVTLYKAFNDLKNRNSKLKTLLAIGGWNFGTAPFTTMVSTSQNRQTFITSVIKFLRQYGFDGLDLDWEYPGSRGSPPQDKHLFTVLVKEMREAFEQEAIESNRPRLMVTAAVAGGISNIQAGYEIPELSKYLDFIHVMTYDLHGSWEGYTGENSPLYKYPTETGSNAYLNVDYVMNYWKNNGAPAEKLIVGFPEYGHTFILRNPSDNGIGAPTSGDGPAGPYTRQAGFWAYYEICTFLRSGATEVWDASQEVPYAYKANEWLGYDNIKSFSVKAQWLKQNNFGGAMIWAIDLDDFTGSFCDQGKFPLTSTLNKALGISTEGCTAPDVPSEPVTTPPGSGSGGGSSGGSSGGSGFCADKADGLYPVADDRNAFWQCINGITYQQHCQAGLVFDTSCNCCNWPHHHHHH

mouse AMCase E140A = target: T3, mouse AMCase E140A (mouse, UniProt Q91XA9 22-473); test: ELISA; + = 0.20 to 0.99 OD at 62.5 ng/ml
T3 construct: Full length point mutant without chitinase activity; also called mAMCase E140A
T3 sequence (Q91XA9 22-473 E140A limits assumed): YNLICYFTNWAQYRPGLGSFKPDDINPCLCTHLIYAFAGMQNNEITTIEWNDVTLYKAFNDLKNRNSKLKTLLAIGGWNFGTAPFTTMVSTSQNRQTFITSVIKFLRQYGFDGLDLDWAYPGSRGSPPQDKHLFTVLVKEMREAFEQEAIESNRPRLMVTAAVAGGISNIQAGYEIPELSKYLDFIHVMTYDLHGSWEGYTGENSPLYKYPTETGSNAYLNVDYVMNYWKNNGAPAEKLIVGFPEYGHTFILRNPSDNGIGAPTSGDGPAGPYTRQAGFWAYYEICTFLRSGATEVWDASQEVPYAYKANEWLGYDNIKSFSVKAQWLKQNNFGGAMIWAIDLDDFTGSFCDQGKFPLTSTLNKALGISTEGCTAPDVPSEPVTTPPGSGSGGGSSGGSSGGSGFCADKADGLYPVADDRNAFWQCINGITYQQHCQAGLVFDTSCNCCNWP

mouse AMCase D136A = target: T4, mouse AMCase D136A (mouse, UniProt Q91XA9 22-473); test: ELISA; ++ = 1.00 to 2.49 OD at 62.5 ng/ml
T4 construct: Full length point mutant without chitinase activity; also called mAMCase D136A
T4 sequence (Q91XA9 22-473 D136A limits assumed): as the sequence (Q91XA9 22-473 E140A limits assumed) above, with D115A, A119E counted along it

[2] = target: T5, human AMCase C-terminally truncated, lacking the chitin binding domain (human, UniProt Q9BZP6 22-398, limits assumed); test: ELISA
T5 construct: Biotin labeled in the galectin ELISA; also called hAMCase TR
T5 sequence (Q9BZP6 22-398 limits assumed): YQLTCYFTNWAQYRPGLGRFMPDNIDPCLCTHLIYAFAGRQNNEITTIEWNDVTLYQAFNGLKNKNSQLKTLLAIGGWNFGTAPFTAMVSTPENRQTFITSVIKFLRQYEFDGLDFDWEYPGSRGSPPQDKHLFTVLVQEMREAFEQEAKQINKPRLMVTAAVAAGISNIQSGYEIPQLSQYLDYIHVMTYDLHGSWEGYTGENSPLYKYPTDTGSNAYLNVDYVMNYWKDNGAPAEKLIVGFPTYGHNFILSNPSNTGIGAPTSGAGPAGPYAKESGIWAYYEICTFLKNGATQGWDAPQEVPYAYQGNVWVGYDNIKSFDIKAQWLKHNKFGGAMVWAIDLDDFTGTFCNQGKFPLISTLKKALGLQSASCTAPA

mouse YKL-40/BRP-39 = target: T6, mouse YKL-40/BRP-39 (mouse, UniProt Q61362 30-389); test: ELISA
T6 construct: Recombinant from HEK293; non-tagged versions also made; also called mYKL40/BRP39; mYKL-40
T6 sequence (Q61362 other isoform, or with tags, fused parts or gaps limits assumed): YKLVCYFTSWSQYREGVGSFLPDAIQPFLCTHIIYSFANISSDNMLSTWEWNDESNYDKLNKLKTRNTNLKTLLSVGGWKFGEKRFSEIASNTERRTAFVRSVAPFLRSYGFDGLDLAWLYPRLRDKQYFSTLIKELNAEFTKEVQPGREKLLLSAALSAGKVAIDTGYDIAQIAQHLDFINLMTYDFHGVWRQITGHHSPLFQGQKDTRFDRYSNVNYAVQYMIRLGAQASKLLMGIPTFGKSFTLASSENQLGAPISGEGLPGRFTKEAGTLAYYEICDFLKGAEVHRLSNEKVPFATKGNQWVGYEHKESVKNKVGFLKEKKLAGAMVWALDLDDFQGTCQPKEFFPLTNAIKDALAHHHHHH

Ym1 = target: T7, Ym1 (mouse, UniProt O35744 22-398); test: ELISA
T7 construct: Recombinant from HEK293; non-tagged versions also made; also called chitinase 3-like 3; ECF-L
T7 sequence (O35744 other isoform, or with tags, fused parts or gaps limits assumed): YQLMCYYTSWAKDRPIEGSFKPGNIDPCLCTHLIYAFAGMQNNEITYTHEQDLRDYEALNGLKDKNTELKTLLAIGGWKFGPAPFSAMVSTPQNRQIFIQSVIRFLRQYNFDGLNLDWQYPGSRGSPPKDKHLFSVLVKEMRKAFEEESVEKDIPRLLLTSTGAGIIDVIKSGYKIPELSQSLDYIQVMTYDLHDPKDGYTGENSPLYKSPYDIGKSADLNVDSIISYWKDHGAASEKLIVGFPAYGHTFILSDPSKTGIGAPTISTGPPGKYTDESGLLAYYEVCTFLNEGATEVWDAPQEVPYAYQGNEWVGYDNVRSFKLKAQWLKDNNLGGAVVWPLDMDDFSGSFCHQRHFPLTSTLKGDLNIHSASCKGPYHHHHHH

human YKL-39 [3] = target: T1, human YKL-39; test: ELISA
human chitotriosidase = target: T8, human chitotriosidase (human, UniProt Q13231 22-466); test: ELISA
T8 construct: Recombinant from HEK293; non-tagged versions also made; also called hChT; ChT
T8 sequence (Q13231 other isoform, or with tags, fused parts or gaps limits assumed): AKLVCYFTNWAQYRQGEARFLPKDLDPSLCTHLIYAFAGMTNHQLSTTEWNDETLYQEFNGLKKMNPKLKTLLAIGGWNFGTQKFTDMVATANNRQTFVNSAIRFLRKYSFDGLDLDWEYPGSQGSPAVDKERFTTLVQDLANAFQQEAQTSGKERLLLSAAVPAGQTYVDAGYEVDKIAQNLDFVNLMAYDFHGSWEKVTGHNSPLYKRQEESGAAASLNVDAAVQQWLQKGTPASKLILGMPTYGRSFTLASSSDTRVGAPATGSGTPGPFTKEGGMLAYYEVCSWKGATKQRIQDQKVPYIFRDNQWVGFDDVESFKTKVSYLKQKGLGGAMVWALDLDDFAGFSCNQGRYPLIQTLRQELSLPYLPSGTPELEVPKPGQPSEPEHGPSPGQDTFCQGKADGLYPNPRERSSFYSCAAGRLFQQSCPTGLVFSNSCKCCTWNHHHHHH

[4] = target: T9, mouse AMCase truncated form lacking the C-terminal chitin binding domain (mouse, UniProt Q91XA9 22-398, limits assumed); test: ELISA
T9 construct: also called mAMCase TR
T9 sequence (Q91XA9 22-398 limits assumed): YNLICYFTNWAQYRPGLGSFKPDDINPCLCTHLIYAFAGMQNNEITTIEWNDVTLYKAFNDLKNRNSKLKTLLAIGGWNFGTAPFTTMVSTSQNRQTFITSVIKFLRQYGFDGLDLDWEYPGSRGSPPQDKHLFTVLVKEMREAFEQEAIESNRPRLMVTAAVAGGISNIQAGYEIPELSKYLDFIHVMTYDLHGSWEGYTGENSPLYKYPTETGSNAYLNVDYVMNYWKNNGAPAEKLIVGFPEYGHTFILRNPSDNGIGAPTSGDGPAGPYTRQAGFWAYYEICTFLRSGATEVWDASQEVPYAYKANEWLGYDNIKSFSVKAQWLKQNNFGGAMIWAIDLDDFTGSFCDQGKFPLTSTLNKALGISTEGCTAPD

human YKL-40 = target: T10, human YKL-40 (human, UniProt P36222 22-383); test: ELISA
T10 construct: Recombinant from HEK293; non-tagged versions also made; also called hYKL-40; chitinase 3-like 1
T10 sequence (P36222 other isoform, or with tags, fused parts or gaps limits assumed): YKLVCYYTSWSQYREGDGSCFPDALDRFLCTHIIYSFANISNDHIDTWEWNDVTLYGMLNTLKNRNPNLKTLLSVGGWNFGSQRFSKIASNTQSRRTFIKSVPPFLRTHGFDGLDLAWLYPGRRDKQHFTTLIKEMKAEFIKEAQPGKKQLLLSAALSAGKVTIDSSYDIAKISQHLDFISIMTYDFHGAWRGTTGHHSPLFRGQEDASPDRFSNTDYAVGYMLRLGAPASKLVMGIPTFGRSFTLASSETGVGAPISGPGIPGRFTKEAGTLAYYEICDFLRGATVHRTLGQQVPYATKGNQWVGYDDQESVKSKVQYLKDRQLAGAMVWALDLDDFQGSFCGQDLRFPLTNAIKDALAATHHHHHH

mouse chitotriosidase = target: T11, mouse chitotriosidase (mouse, UniProt Q9D7Q1 22-464); test: ELISA
T11 construct: Recombinant from HEK293; non-tagged versions also made; also called mChT; mouse ChT
T11 sequence (Q9D7Q1 other isoform, or with tags, fused parts or gaps limits assumed): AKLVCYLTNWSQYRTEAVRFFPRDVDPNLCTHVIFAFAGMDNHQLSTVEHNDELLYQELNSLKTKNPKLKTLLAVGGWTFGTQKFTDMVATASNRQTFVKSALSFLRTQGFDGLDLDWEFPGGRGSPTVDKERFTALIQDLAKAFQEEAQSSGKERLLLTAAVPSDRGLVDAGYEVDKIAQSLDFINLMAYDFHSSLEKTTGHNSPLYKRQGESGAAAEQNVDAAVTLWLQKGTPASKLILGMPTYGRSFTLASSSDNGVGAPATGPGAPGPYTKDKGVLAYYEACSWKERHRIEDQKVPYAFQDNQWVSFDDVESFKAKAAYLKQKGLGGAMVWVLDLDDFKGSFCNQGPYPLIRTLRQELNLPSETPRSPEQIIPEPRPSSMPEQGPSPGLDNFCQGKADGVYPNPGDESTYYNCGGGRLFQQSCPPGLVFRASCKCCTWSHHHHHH

Ym2 [5] = target: T12, Ym2 (mouse, UniProt Q91Z98 22-402); test: ELISA
T12 construct: Recombinant from HEK293; non-tagged versions also made; also called chitinase 3-like 4
T12 sequence (Q91Z98 other isoform, or with tags, fused parts or gaps limits assumed): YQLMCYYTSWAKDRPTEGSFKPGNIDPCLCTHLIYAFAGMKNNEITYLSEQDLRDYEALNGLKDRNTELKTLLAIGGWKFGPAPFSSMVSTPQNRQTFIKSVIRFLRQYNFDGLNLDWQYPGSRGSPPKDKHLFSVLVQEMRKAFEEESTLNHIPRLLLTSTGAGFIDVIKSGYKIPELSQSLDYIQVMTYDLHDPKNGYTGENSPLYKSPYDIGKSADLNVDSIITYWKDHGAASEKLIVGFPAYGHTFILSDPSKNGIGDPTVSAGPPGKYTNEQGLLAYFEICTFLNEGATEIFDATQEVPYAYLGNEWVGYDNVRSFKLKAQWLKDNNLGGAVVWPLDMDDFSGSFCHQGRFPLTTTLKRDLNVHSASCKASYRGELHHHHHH

human YKL-39 [6] = target: T1, human YKL-39; test: ELISA; + = 0.20 to 0.99 OD at 62.5 ng/ml
Ym2 [7] = target: T12, Ym2; test: ELISA; + = 0.20 to 0.99 OD at 62.5 ng/ml
[8] = target: T9, mouse AMCase truncated form lacking the …; test: ELISA; ++ = 1.00 to 2.49 OD at 62.5 ng/ml
[9] = target: T2, mouse acidic mammalian chitinase …; test: ELISA; ++ = 1.00 to 2.49 OD at 62.5 ng/ml

Binder | ELISA OD at 62.5 ng/ml antibody [1] | ELISA OD at 62.5 ng/ml antibody (mouse AMCase E140A) | ELISA OD at 62.5 ng/ml antibody (mouse AMCase D136A) | binding result [2] | binding result (mouse YKL-40/BRP-39) | binding result (Ym1) | binding result (human YKL-39 [3]) | binding result (human chitotriosidase) | binding result [4] | binding result (human YKL-40) | binding result (mouse chitotriosidase) | binding result (Ym2 [5]) | ELISA OD at 62.5 ng/ml antibody (human YKL-39 [6]) | binding result (Ym2 [7]) | ELISA OD at 62.5 ng/ml antibody [8] | ELISA OD at 62.5 ng/ml antibody [9]
Z8 (antibody, V domains shown, Fully human anti-AMCase antibody from phage display, converted to full length IgG) VH: EVQLLESGGGLVQPGGSLRLSCAASGFTFSPYLMWWVRQAPGKGLEWVSYISSSGGYTSYADSVKGRFTISRDNSKNTLYLQMNSLRAEDTAMYYCARMYYYDSSGYPSFDYWGQGTLVTVSS VL: QSALTQPPSASGTPGQRVTISCSGSGSNIGSNTVNWYQQLPGTAPKLLIYSSNQRPSGVSDRFSGSKSVASASLAINGLQSEDEADYYCAGWDDSLNGPVFGGGTKLTVL | 0.2 to 0.99 od | 0.2 to 0.99 od | 1 to 2.49 od | no binding | no binding | no binding | no binding | no binding | no binding | no binding | no binding | no binding | – | – | – | –
Z1 (antibody, V domains shown, Fully human anti-AMCase antibody from phage display, converted to full length IgG) VH: EVQLLESGGGLVQPGGSLRLSCAASGFTFSFYRMAWVRQAPGKGLEWVSRISSSGGPTMYADSVKGRFTISRDNSKNTLYLQMNSLRAEDTAVYYCTTEKQYAGVTFESWGQGTLVTVSS VL: DIQMTQSPATLSLSPGERATLSCRASQSVSSYLAWYQQKPGQAPRLLIYDASNRATGIPARFSGSGSGTDFTLTISSLEPEDFAVYYCQQRSNSPTFGGGTKVEIK | – | 0.2 to 0.99 od | – | – | no binding | – | – | – | – | no binding | – | – | 0.2 to 0.99 od | binds | 1 to 2.49 od | 1 to 2.49 od
